Test results published in the supplement of paper PMC7877785.
± gives the uncertainty stated by the source.

Test: self-splicing fitness, log relative to wild type (ln ratio); higher = more splicing; Tetrahymena group I intron in knt gene, E. coli kanamycin selection, DiMSum; sequences stand for … in CUCUCU…GGAGGGAAAAGUUAUCAGGCAUGCACCUGGUAGCUAGUCUUUAAACCAAUAGAUUGCAUCGGUUUAAAAGGCAAGACCGUCAAAUUGCGGGAAAGGGGUCAACAGCCGUUCAGUACCAAGUCUCAGGGGAAACUUUGAGAUGGCCUUGCAAAGGGUAUGGUAAUAAGCUGACGGACAUGGUCCUAACCACGCAGCCAAGUCCUAAGUCAACAGAUCUUCUGUUGAUAUGGAUGCAGUUCACAGACUAAAUGUCGGUCGGGGAAGAUGUAUUCUUCUCAUAAGAUAUAGUCGGACCUCUCCUUAAUGGGAGCUAGCGGAUGAAGUGAUGCAACACUGGAGCCGCUGGGAACUAAUUUGUAUGCGAAAGUAUAUUGAUUAGUUUUGGAGUACUCGUGGUCG
Procedure, shortened: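 Pooled colonies went to amplicon sequencing on an Illumina HiSeq 2500 after six replicate transformations. The plates were LB agar with 100 μg/mL carbenicillin, 50 μM IPTG and 0.2% rhamnose, with or without 25 μg/mL kanamycin, incubated overnight at 37°C or 30°C. The E. coli BL21(DE3) library had all eight P1ex-region intron nucleotides randomised, the intron placed in the knt kanamycin-resistance gene on pET-22b(+). DiMSum fitness is the error-weighted combination of replicate fold changes, kanamycin against none, normalised to wild type.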

Question: For GGAAAGCAAUAUUACGGUAA, which “self-splicing fitness (ln)” value (30 °C) is on record?
Answer: -1.62 ± 0.15

Question: And the “self-splicing fitness (ln)” value (37 °C)?
Answer: -0.544 ± 0.12

Question: For GGAAAGCAAUAUUACGGUCA, which “self-splicing fitness (ln)” value (30 °C) is on record?
Answer: -0.418 ± 0.09

Question: And the “self-splicing fitness (ln)” value (37 °C)?
Answer: 0.154 ± 0.1

Question: Which results are given for GGAAAGCAAUAUUACGUGUG?
Answer: self-splicing fitness (ln) (30 °C): -2.41 ± 0.087; self-splicing fitness (ln) (37 °C): -0.505 ± 0.078

Question: For GGAAAGCAAUAUUACGUUGA, which “self-splicing fitness (ln)” value (30 °C) is on record?
Answer: -2.31 ± 0.081

Question: And the “self-splicing fitness (ln)” value (37 °C)?
Answer: -1.27 ± 0.084

Question: For GGAAAGCAAUAUUACGUUUA, which “self-splicing fitness (ln)” value (30 °C) is on record?
Answer: -1.89 ± 0.11

Question: And the “self-splicing fitness (ln)” value (37 °C)?
Answer: -1.16 ± 0.11

Question: What does the source list for GGACAGCAAUAUUACGAAUA?
Answer: self-splicing fitness (ln) (30 °C): -1.69 ± 0.13; self-splicing fitness (ln) (37 °C): -0.937 ± 0.13

Question: For GGACAGCAAUAUUACGACUA, which “self-splicing fitness (ln)” value (30 °C) is on record?
Answer: 0.148 ± 0.12

Question: And the “self-splicing fitness (ln)” value (37 °C)?
Answer: -0.612 ± 0.12

Question: Which “self-splicing fitness (ln)” value (30 °C) does the source give for GGACAGCAAUAUUACGACUC here?
Answer: -0.16 ± 0.078

Question: And the “self-splicing fitness (ln)” value (37 °C)?
Answer: 0.231 ± 0.097

Question: Which “self-splicing fitness (ln)” value (30 °C) does the source give for GGACAGCAAUAUUACGACUU here?
Answer: -0.232 ± 0.085

Question: And the “self-splicing fitness (ln)” value (37 °C)?
Answer: 1.19 ± 0.1

Question: What does the source list for GGACAGCAAUAUUACGAGGC?
Answer: self-splicing fitness (ln) (30 °C): -2.17 ± 0.14; self-splicing fitness (ln) (37 °C): -1.32 ± 0.2

Question: What does the source list for GGACAGCAAUAUUACGAUGC?
Answer: self-splicing fitness (ln) (30 °C): 0.225 ± 0.075; self-splicing fitness (ln) (37 °C): 0.446 ± 0.09

Question: For GGACAGCAAUAUUACGCCCU, which “self-splicing fitness (ln)” value (30 °C) is on record?
Answer: -3.25 ± 0.2

Question: And the “self-splicing fitness (ln)” value (37 °C)?
Answer: -0.306 ± 0.14

Question: With GGACAGCAAUAUUACGCGGU as the sequence, how does the “self-splicing fitness (ln)” value (30 °C) read?
Answer: -4.03 ± 0.23

Question: And the “self-splicing fitness (ln)” value (37 °C)?
Answer: -1.6 ± 0.15

Question: What does the source list for GGACAGCAAUAUUACGCGUG?
Answer: self-splicing fitness (ln) (30 °C): -1.17 ± 0.065; self-splicing fitness (ln) (37 °C): -0.234 ± 0.074

Question: With GGACAGCAAUAUUACGCUAA as the sequence, how does the “self-splicing fitness (ln)” value (30 °C) read?
Answer: -0.66 ± 0.1

Question: And the “self-splicing fitness (ln)” value (37 °C)?
Answer: -0.339 ± 0.12

Question: Which results are given for GGACAGCAAUAUUACGCUUU?
Answer: self-splicing fitness (ln) (30 °C): -1.39 ± 0.065; self-splicing fitness (ln) (37 °C): -0.538 ± 0.087

Question: What does the source list for GGACAGCAAUAUUACGGAGU?
Answer: self-splicing fitness (ln) (30 °C): -1.61 ± 0.12; self-splicing fitness (ln) (37 °C): -1.12 ± 0.11

Question: For GGACAGCAAUAUUACGGAUG, which “self-splicing fitness (ln)” value (30 °C) is on record?
Answer: -3.44 ± 0.16

Question: What about the “self-splicing fitness (ln)” value (37 °C) of the same sequence?
Answer: -0.131 ± 0.11

Question: Which “self-splicing fitness (ln)” value (30 °C) does the source give for GGACAGCAAUAUUACGGUGG here?
Answer: -1.71 ± 0.11

Question: And the “self-splicing fitness (ln)” value (37 °C)?
Answer: -1.53 ± 0.14

Question: Which “self-splicing fitness (ln)” value (30 °C) does the source give for GGACAGCAAUAUUACGUAAC here?
Answer: -0.0173 ± 0.1

Question: And the “self-splicing fitness (ln)” value (37 °C)?
Answer: -0.0671 ± 0.14

Question: Which “self-splicing fitness (ln)” value (30 °C) does the source give for GGACAGCAAUAUUACGUACU here?
Answer: -1.22 ± 0.097

Question: And the “self-splicing fitness (ln)” value (37 °C)?
Answer: -0.317 ± 0.1

Question: For GGACAGCAAUAUUACGUAUA, which “self-splicing fitness (ln)” value (30 °C) is on record?
Answer: -0.645 ± 0.1

Question: What about the “self-splicing fitness (ln)” value (37 °C) of the same sequence?
Answer: -0.388 ± 0.095

Question: Which “self-splicing fitness (ln)” value (30 °C) does the source give for GGACAGCAAUAUUACGUCCA here?
Answer: -1.24 ± 0.13

Question: And the “self-splicing fitness (ln)” value (37 °C)?
Answer: -0.889 ± 0.16

Question: For GGACAGCAAUAUUACGUGAC, which “self-splicing fitness (ln)” value (30 °C) is on record?
Answer: -1.07 ± 0.081

Question: And the “self-splicing fitness (ln)” value (37 °C)?
Answer: -1.23 ± 0.13

Question: For GGACAGCAAUAUUACGUGUG, which “self-splicing fitness (ln)” value (30 °C) is on record?
Answer: -1.55 ± 0.05

Question: What about the “self-splicing fitness (ln)” value (37 °C) of the same sequence?
Answer: -0.79 ± 0.066

Question: With GGACAGCAAUAUUACGUUGA as the sequence, how does the “self-splicing fitness (ln)” value (30 °C) read?
Answer: -0.48 ± 0.07

Question: What about the “self-splicing fitness (ln)” value (37 °C) of the same sequence?
Answer: 0.279 ± 0.098

Question: For GGAGAGCAAUAUUACGAAAG, which “self-splicing fitness (ln)” value (30 °C) is on record?
Answer: -2.26 ± 0.26

Question: Which “self-splicing fitness (ln)” value (30 °C) does the source give for GGAGAGCAAUAUUACGAACU here?
Answer: -1.36 ± 0.31

Question: And the “self-splicing fitness (ln)” value (37 °C)?
Answer: -1.92 ± 0.37

Question: Which results are given for GGAGAGCAAUAUUACGAAUC?
Answer: self-splicing fitness (ln) (30 °C): -3.58 ± 0.49; self-splicing fitness (ln) (37 °C): -2.4 ± 0.39

Question: Which results are given for GGAGAGCAAUAUUACGAGGA?
Answer: self-splicing fitness (ln) (30 °C): -3.52 ± 0.31; self-splicing fitness (ln) (37 °C): -2.44 ± 0.19

Question: With GGAGAGCAAUAUUACGAGGG as the sequence, how does the “self-splicing fitness (ln)” value (30 °C) read?
Answer: -1.99 ± 0.38

Question: Which results are given for GGAGAGCAAUAUUACGAUUC?
Answer: self-splicing fitness (ln) (30 °C): -1.58 ± 0.29; self-splicing fitness (ln) (37 °C): -0.911 ± 0.26

Question: For GGAGAGCAAUAUUACGCAAA, which “self-splicing fitness (ln)” value (30 °C) is on record?
Answer: -3.82 ± 0.43

Question: With GGAGAGCAAUAUUACGCAUA as the sequence, how does the “self-splicing fitness (ln)” value (30 °C) read?
Answer: -3.12 ± 0.26

Question: What about the “self-splicing fitness (ln)” value (37 °C) of the same sequence?
Answer: -2.73 ± 0.23

Question: For GGAGAGCAAUAUUACGCUUC, which “self-splicing fitness (ln)” value (37 °C) is on record?
Answer: -1.31 ± 0.43

Question: With GGAGAGCAAUAUUACGGAUG as the sequence, how does the “self-splicing fitness (ln)” value (37 °C) read?
Answer: -1.45 ± 0.35

Question: For GGAGAGCAAUAUUACGGCAG, which “self-splicing fitness (ln)” value (30 °C) is on record?
Answer: -3.29 ± 0.38

Question: Which results are given for GGAGAGCAAUAUUACGGCUU?
Answer: self-splicing fitness (ln) (30 °C): -0.815 ± 0.2; self-splicing fitness (ln) (37 °C): -2.01 ± 0.3

Question: For GGAGAGCAAUAUUACGGGUC, which “self-splicing fitness (ln)” value (30 °C) is on record?
Answer: -1.54 ± 0.15

Question: And the “self-splicing fitness (ln)” value (37 °C)?
Answer: -1.53 ± 0.2

Question: With GGAGAGCAAUAUUACGGUCC as the sequence, how does the “self-splicing fitness (ln)” value (37 °C) read?
Answer: -1.17 ± 0.34
